Eleven molecules from US20120207760A1 (THERACLONE SCIENCES, published 2012) can be followed below.

B1: TCN-032 Fab fragment (Fab, V domains shown)
VH: QVQLQESGPGLVKPSETLSLTCTVSGSSISNYYWSWIRQSPGKGLEWIGFIYYGGNTKYNPSLKSRVTISQDTSKSQVSLTMSSVTAAESAVYFCARASCSGGYCILDYWGQGTLVTVS
VL: DIQMTQSPSSLSASVGDRVTITCRASQNIYKYLNWYQQRPGKAPKGLISAASGLQSGVPSRFSGSGSGTDFTLTITSLQPEDFATYYCQQSYSPPLTFGGGTRVEIK
B2: TCN-031 Fab fragment (Fab, V domains shown)
VH: EVQLVESGGGLVQPGGSLRISCAASGFTVSSNYMSWVRQAPGKGLEWVSVIYSGGSTYYADSVKGRFSFSRDNSKNTVFLQMNSLRAEDTAVYYCARCLSRMRGYGLDVWGQGTTVTVS
VL: DIQMTQSPSSLSASVGDRVTITCRTSQSISSYLNWYQQKPGKAPKLLIYAASSLQSGVPSRFSGSGSGTDFTLTISGLQPEDFATYYCQQSYSMPAFGQGTKLEIK
B3: TCN-550 (5096_F06) (antibody, V domains shown)
VH: QVQLQESGPGLVKPSETLSLTCTVSGASINSHYWSWIRQPPGKGLEWIGYVYYSGSTTYNPSLKSRVTLSVDTSKNQFSLNLSSVTAADTAFYYCARHPYDVLTGSGDWFDPWGQGTLVTVSS
VL: SYVLTQAPSVSVAPGQTARITCGGNAIGSKKVHWYQHKAGQAPVLVVYDDTDRPSGIPERFSGSNSWSTATLTINRVEAGDEADYYCQVWDFTIDHVVFGGGTKLTVL
B4: TCN-557 (5081_A04) (antibody, V domains shown)
VH: QVQLVQSGAEVKKPGASVKVSCKASGHTFTGYYIHWVRQAPGQGLEWMGWINPDSGATSSAQNFQGRVTMTGDTSSSTAYMELSRLSFDDTAVYYCARVLFTSPFDFWGEGTLVTVSS
VL: QAVVTQEPSLAVSPGGTVTLTCGSSTGAVTRGHYPYWFQQKPGQAPRALIYDSAGNRHSWTPARFSGSLLGGKAALTLSGAQPEDEAEYYCLLSYSGVWVFGGGTKLTVL
B5: TCN-549 (5092_P04) (antibody, V domains shown)
VH: QVQLVQSGAEVKKPGASVKVSCKASGYTFTGYYMHWVRQAPGQGLEWMGWINPNSGDTNYAQKFQGRVTMTRDTSITTAYMELSSLRSDDTAVYYCARDSPYSSSWSFFDYWGQGPLVTVSS
VL: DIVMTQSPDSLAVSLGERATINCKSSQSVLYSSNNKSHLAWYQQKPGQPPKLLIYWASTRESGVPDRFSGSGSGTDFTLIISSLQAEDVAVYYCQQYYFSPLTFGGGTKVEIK
B6: TCN-560 (5084_P10) (antibody, V domains shown)
VH: EVQLVESGGGLVQPGGSLRLSCAASGFIFRNYWMSWVRQAPGKGLEWVANIKQDGREKYYVDSLRGRVNISRDNAENSLYLHMNSLRVEDTAVYFCARARMVVVTGDGFDVWGHGTMVTVSS
VL: DIQMTQSPSSLSASVGDRVTITCRASQNIKRYFNWYQQKPGKAPKLLIYAASNLENGVPSRFSGSGSGTDFTLTISSLQPEDFATYYCQQSFSKSWTFGQGTNVDIK
B7: TCN-552 (5249_I23) (antibody, V domains shown)
VH: QVQVVQSGAEVKKPGSSVRVSCQASGGTFMNYAIIWVRRAPGQGLEWMGGIIPVFPTPNYAQMFQGRVTISTDESRSTSFLELTNLRYEDTAVYYCARRIYHGGNSGFDFWGQGTLVTVSS
VL: EIVLTQSPATLSLSPGERATLSCRASQSVGNYLAWYQQKPGQAPRLLIYDSSNRAPGIPARFSGSGSGTDFTLTISSLAPEDFAVYYCQQRSKWPPMYSFGHGTKLEIK
B8: TCN-555 (5246_L16) (antibody, V domains shown)
VH: QVQLVQSGAEVKRPGSSVKVSCTASGGIFRKNAISWVRQAPGQGLEWMGGIIAVFNTANYAQKFQNRVKITADESGNTAYMELSSLTSDDTAVYYCASHPKYFYGSGSYPDFWGQGTLVTVSS
VL: QSALTQPRSVSGSPGQSITISCTGGSSDIGASNSVSWYQQHPGKAPKLVIFDVTERPSGVPHRFSGSKSGNTASLTVSGLQPDDEADYFCCAYGGKYLVVFGGGTKVTVL
B9: TCN-556 (5089_K12) (antibody, V domains shown)
VH: QVQLVQSGAEVKKPGASVKVSCKASGYTFIGYDMHWVRQAPGQGLEWMGWINAKRGGTNYAQKFQGRVTMTRDTSISTAYMELNSLRSDDTAVYYCARGVGSRTTIFGVLNPEFDYWGQGTLVTVSS
VL: QSALTQPPSASGSPGQSVTISCTGSSSDVGGYDYVSWYQQHPGKAPKLLIYEVTKRPSGVPDRFSGSKSGNTASLTVSGLQAEDEADYYCSSYAGNYNHVFGPGTKVTVL
B10: TCN-548 (5092_P01) (antibody, V domains shown)
VH: QVQLQESGPGLVKPSETLSLTCTVSSGPMSDYYWSWIRQPPGKGLEWIGHVSVSHGGRTKSNPSVMSRVTISVETSKNQFSLKLTSVTAADTAVYYCARLNYYDRSGYHSPDGPSNNWFDPWGQGTLVTVSS
VL: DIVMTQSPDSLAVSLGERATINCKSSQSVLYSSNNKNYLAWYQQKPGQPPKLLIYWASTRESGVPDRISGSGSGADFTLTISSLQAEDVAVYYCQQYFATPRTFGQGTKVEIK
B11: TCN-553 (5261_C18) (antibody, V domains shown)
VH: QVQVVQSGTEVKKPGSSVKVSCQTSGGRFMSYAITWVRQAPGQGLEWMGGIVPVFGTANYAQKFQGRVTITTDDSTRTAYMELSSLRSEDTAVYYCGFRYGSGYGFDSWGQGTLVTVSS
VL: EIVLTQSPGTLSLSPGERATLSCRASQSVSSSYLAWYQKKPGQAPRLLIYGASTRATGIPDRFTGSGSGTDFTLSISRLEPEDFAVYYCQHFGTSVFTFGGGTKVEIK

Sequence of M2 protein of influenza A/Puerto Rico/8/34 (H1N1), on inactivated virus (P06821 whole entry, the tested form may be a part): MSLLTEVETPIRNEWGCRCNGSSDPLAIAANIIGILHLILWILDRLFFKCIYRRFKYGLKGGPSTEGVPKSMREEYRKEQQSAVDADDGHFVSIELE

One assay has as its target M2 protein of influenza A/Puerto Rico/8/34 (H1N1), on inactivated virus (Influenza A virus A/Puerto Rico/8/34 …, UniProt P06821 1-97). Briefly: surface plasmon resonance, Fab fragment on influenza virus. In general terms: Surface plasmon resonance follows binding to a sensor surface in real time, without labels.
In turn, B1 displayed a Kd of 3.2 nM, a koff of 0.0023 s⁻¹ and a kon of 740000 M⁻¹ s⁻¹.
Take B2: binding was put at a Kd of 14 nM, the koff turned out to be 0.014 s⁻¹ and the kon was found to be 1e+06 M⁻¹ s⁻¹.

In another assay the target is Hemagglutinin of influenza A/Japan/305/57 (H2N2), on inactivated whole virions (Influenza A virus A/Japan/305/1957 …, UniProt P03451 16-562). Put plainly: ELISA, B cell culture supernatant on inactivated whole virions. A general note: In an ELISA, binding on a coated surface is turned into a signal by an enzyme label.
With B3, the OD450 was determined as 0.06 OD450.
For B4, the OD450 is 2.7 OD450.
As for B5, the OD450 is 0.08 OD450.
As for B6, the OD450 was found to be 2.07 OD450.
The same measure, in the same setting: in the case of B7 it was 0.71 OD450; in that of B8, 0.6 OD450.
The molecule B9 showed an OD450 of 2.41 OD450.
On to B10, for which the OD450 was determined as 0.09 OD450.
In turn, B11 registered an OD450 of 2.54 OD450.

By Kd is commonly meant a measure of binding affinity in units of concentration. Low readings indicate higher affinity, high ones lower affinity. As a reminder, the koff is a measure of how fast the partners let go of each other. Lower therefore signals slow dissociation. In general, kon refers to the rate constant with which the complex forms.
